Test results published in publication PMC9899272, “An engineered variant of MECR reductase reveals indispensability of long-chain acyl-ACPs for mitochondrial respiration” (Nature Communications, 2023).

Key:
[1] = substrate: CCC/C=C/C(=O)SCCNC(=O)CCNC(=O)[C@H](O)C(C)(C)COP(=O)(O)OP(=O)(O)OC[C@H]1O[C@@H](n2cnc3c(N)ncnc32)[C@H](O)[C@@H]1OP(=O)(O)O; assay: spectrophotometric 2E-enoyl-CoA reductase assay, Michaelis-Menten fit; assay type: biochemical, Homo sapiens; details: 125 µM NADPH, 100 µg bovine serum albumin, 50 mM potassium phosphate pH 7.5, 25 °C
Excerpt: (§1) spectrophotometric 2E-enoyl-CoA reductase assay, Michaelis-Menten fit on MECR

[2] = substrate: CCCCC/C=C/C(=O)SCCNC(=O)CCNC(=O)[C@H](O)C(C)(C)COP(=O)(O)OP(=O)(O)OC[C@H]1O[C@@H](n2cnc3c(N)ncnc32)[C@H](O)[C@@H]1OP(=O)(O)O; assay: as above; assay type: biochemical, Homo sapiens; details: 125 µM NADPH, 100 µg bovine serum albumin, 50 mM potassium phosphate pH 7.5, 25 °C
Excerpt: as §1

[3] = substrate: CCCCCCC/C=C/C(=O)SCCNC(=O)CCNC(=O)[C@H](O)C(C)(C)COP(=O)(O)OP(=O)(O)OC[C@H]1O[C@@H](n2cnc3c(N)ncnc32)[C@H](O)[C@@H]1OP(=O)(O)O; assay: as above; assay type: biochemical, Homo sapiens; details: 125 µM NADPH, 100 µg bovine serum albumin, 50 mM potassium phosphate pH 7.5, 25 °C
Excerpt: as §1

[4] = target: the molecule itself; assay: crystal structure; sitting drop vapor diffusion at +4 °C, 16.82% PEG 6000, 1 M NaCl, 100 mM acetic acid, pH 4.5; trigonal space group P3(1)21; one chain in the asymmetric unit, dimer via a crystallographic 2-fold axis

Protein	Km [1]	kcat [1]	kcat/Km [1]	Km [2]	kcat [2]	kcat/Km [2]	Km [3]	kcat [3]	kcat/Km [3]	stoichiometry N [4]
wild-type human MECR (2E-enoyl-ACP reductase) with C-terminal His-tag (enzyme, UniProt Q9BV79 31-373, looked up, the first N-terminal residues of the crystallised protein are A31-A41 (not defined in the maps); the C-terminus is seen till L374, followed by the six-residue His-tag; L374 lies beyond M373, the last visible residue of the earlier structures, and is probably a vector residue before the His-tag; also called wild-type MECR; MECR WT; source: E. coli BL 21 Star (DE3) pLysS, purified (Ni-NTA, …)) ASSYSASAEPARVRALVYGHHGDPAKVVELKNLELAAVRGSDVRVKMLAAPINPSDINMIQGNYGFLPELPAVGGNEGVAQVVAVGSNVTGLKPGDWVIPANAGLGTWRTEAVFSEEALIQVPSDIPLQSAATLGVNPCTAYRMLMDFEQLQPGDSVIQNASNSGVGQAVIQIAAALGLRTINVVRDRPDIQKLSDRLKSLGAEHVITEEELRRPEMKNFFKDMPQPRLALNCVGGKSSTELLRQLARGGTMVTYGGMAKQPVVASVSLLIFKDLKLRGFWLSQWKKDHSPDQFKELILTLCDLIRRGQLTAPACSQVPLQDYQSALEASMKPFISSKQILTM	90.6 ± 26.5 µM	0.99 ± 0.22 s⁻¹	10000 M⁻¹ s⁻¹	23.2 ± 5.4 µM	1.8 ± 0.13 s⁻¹	80000 M⁻¹ s⁻¹	15.9 ± 2.2 µM	0.62 ± 0.02 s⁻¹	40000 M⁻¹ s⁻¹	2
MECR G165Q variant with C-terminal His-tag (enzyme, human, UniProt Q9BV79 31-373, looked up, the first N-terminal residues of the crystallised protein are A31-A41 (not defined in the maps); the C-terminus is seen till L374, followed by the six-residue His-tag; L374 is probably a vector residue before the His-tag; also called G165Q MECR; G165Q mutant; source: E. coli BL 21 Star (DE3) pLysS, purified (Ni-NTA, size-exclusion chromatography); not shown: His6, C-terminal, kept) ASSYSASAEPARVRALVYGHHGDPAKVVELKNLELAAVRGSDVRVKMLAAPINPSDINMIQGNYGFLPELPAVGGNEGVAQVVAVGSNVTGLKPGDWVIPANAGLGTWRTEAVFSEEALIQVPSDIPLQSAATLQVNPCTAYRMLMDFEQLQPGDSVIQNASNSGVGQAVIQIAAALGLRTINVVRDRPDIQKLSDRLKSLGAEHVITEEELRRPEMKNFFKDMPQPRLALNCVGGKSSTELLRQLARGGTMVTYGGMAKQPVVASVSLLIFKDLKLRGFWLSQWKKDHSPDQFKELILTLCDLIRRGQLTAPACSQVPLQDYQSALEASMKPFISSKQILTM	111.2 ± 17.3 µM	3.49 ± 0.33 s⁻¹	30000 M⁻¹ s⁻¹	114.1 ± 16.2 µM	12.4 ± 1.9 s⁻¹	110000 M⁻¹ s⁻¹	8.15 ± 1.54 µM	0.3 ± 0.02 s⁻¹	40000 M⁻¹ s⁻¹	2
